Here are results for 2 substances from EP1736545A2.

One test has as its target IL-TIF protein (human) (UniProt Q9GZX6). The test can be described thus: cell-based or functional assay.
In test [1] the target is zcytor11 and CRF2-4 receptors co-expressed on transfected BaF3 or BHK cells (human) (UniProt Q08334). The test can be described thus: cell-based or functional assay.
zcytor11 and CRF2-4 receptors co-expressed on transfected BaF3 or BHK cells (human), sequence (chain, as listed by the source limits assumed, form in doubt, chain 1 of 2): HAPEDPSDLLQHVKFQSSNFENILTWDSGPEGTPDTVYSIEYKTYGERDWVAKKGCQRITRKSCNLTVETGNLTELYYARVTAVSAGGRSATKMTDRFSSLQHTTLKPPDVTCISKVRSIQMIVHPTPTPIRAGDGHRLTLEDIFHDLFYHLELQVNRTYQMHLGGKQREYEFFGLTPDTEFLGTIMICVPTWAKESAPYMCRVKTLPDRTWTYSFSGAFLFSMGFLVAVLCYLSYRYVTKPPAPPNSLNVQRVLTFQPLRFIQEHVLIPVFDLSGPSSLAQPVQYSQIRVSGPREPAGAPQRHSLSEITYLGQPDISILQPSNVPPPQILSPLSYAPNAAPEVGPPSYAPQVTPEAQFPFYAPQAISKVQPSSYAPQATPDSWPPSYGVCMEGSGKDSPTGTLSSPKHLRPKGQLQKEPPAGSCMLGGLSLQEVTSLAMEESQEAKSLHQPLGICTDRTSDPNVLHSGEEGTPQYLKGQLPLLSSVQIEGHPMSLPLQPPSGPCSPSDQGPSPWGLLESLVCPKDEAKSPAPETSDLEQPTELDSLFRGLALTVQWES
zcytor11 and CRF2-4 receptors co-expressed on transfected BaF3 or BHK cells (human), sequence (Q08334 20-325 limits assumed, form in doubt, chain 2 of 2): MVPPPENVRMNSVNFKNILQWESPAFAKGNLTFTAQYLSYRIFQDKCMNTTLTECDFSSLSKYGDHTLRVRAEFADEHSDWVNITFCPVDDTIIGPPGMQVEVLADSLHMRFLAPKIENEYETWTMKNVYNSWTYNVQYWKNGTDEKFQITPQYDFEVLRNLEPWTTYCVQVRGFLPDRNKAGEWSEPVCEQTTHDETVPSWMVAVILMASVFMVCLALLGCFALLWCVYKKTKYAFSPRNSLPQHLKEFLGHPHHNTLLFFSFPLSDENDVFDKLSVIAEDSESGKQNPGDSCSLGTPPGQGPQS

IL-TIF protein (human), sequence (Q9GZX6 34-179 limits assumed, form in doubt): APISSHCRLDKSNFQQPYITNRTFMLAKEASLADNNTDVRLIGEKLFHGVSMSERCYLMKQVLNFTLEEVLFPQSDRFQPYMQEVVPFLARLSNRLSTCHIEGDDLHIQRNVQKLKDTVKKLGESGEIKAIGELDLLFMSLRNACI

In the test with IL-TIF protein (human), “CRF2-4/zcytor11-Fc soluble receptor heterodimer (Fc fusion)” yielded an inhibition of IL-TIF-induced proliferation of BaF3/CRF2-4/zcytor11 cells (Alamar Blue): concentration at which inhibition was barely detectable of 1.6 ng/mL, an inhibition of IL-TIF-induced proliferation of BaF3/CRF2-4/zcytor11 cells (Alamar Blue): concentrations giving complete inhibition of 25 to 200 ng/mL and an inhibition of IL-TIF-induced proliferation of BaF3/CRF2-4/zcytor11 cells (Alamar Blue): concentrations giving partial inhibition of 3.1 to 12.5 ng/mL.
On to “IL-TIF protein (from UniProt Q9GZX6 34-179) (ligand)”, for which the proliferation of BaF3/CRF2-4/zcytor11 cells (Alamar Blue), IL-TIF at 100 pg/ml (fold over background) in test [1] turned out to be 30.
